According to PMC5496861, “Yeast Cip1 is activated by environmental stress to inhibit Cdk1–G1 cyclins via Mcm1 and Msn2/4”:

T1: GST-Msn2(401-704) (Saccharomyces cerevisiae, UniProt P33748 401-704)
T1 sequence: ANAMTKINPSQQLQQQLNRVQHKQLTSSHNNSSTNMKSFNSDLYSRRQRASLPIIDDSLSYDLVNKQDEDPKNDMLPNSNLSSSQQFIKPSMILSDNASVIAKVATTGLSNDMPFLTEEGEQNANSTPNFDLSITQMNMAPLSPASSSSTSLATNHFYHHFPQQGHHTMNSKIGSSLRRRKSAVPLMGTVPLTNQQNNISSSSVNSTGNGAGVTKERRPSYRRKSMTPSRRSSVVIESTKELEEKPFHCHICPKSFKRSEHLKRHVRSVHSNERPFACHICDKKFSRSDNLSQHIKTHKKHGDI


Molecular target: T1, GST-Msn2(401-704)
Experiment: EMSA; 100 ng protein, 32P-end-labeled ds oligos, 4% nondenaturing polyacrylamide gel; buffer, salt, pH and temperature not given (as previously described, ref 64)
Settings: protein: recombinant; tags: N-terminal GST (pGEX4T-1); label: 32P end label; blunt

Binder | binding result
STRE I (dsDNA) DNA 1: GGAACTCGCGCAGGGGGAAGACATA DNA 2: TATGTCTTCCCCCTGCGCGAGTTCC | binds
STRE II (dsDNA) DNA 1: GTATTTTCCTCCCCCTAGCTTCAAC DNA 2: GTTGAAGCTAGGGGGAGGAAAATAC | binds
